Test results: article PMC5607398, “Neisseria cinerea Expresses a Functional Factor H Binding Protein Which Is Recognized by Immune Responses Elicited by Meningococcal Vaccines” (Infection and Immunity, 2017)

B1: recombinant CFH6–7 (CCP domains 6 and 7 of complement factor H) (domain or fragment, human)
chain: TLKPCDYPDIKHGGLYHENMRRPYFPVAVGKYYSYYCDEHFETPSGSYWDHIHCTQDGWSPAVPCLRKCYFPYLENGYNQNYGRKFVQGKSIDVACHPGYALPKAQTTVTCMENGWSPTPRCI
B2: Neisseria meningitidis V1.1 factor H binding protein (V1.1 fHbp), recombinant (natural protein)
chain: GGVAADIGAGLADALTAPLDHKDKGLQSLTLDQSVRKNEKLKLAAQGAEKTYGNGDSLNTGKLKNDKVSRFDFIRQIEVDGQLITLESGEFQVYKQSHSALTAFQTEQIQDSEHSGKMVAKRQFRIGDIAGEHTSFDKLPEGGRATYRGTAFGSDDAGGKLTYTIDFAAKQGNGKIEHLKSPELNVDLAAADIKPDGKRHAVISGSVLYNQAEKGSYSLGIFGGKAQEVAGSAEVKTVNGIRHIGLAAKQ
notes: source: E. coli BL21(DE3), pET21b, purified (HisTrap, anion exchange)

Tests used:
[1] = molecular target: full-length human CFH (Sigma) (UniProt P08603); experiment: ELISA; details: read off a plot
[2] = molecular target: Neisseria cinerea CCUG 346T factor H binding protein (V1.110 fHbp), recombinant (Neisseria cinerea); experiment: SPR
[3] = molecular target: B2; experiment: SPR; details: both partners purified
[4] = molecular target: T1, full-length human CFH (Sigma) (human, UniProt P08603 19-1231); experiment: ELISA; plates coated with recombinant fHbp (3 ug/ml); full-length human CFH (Sigma) in 2-fold dilutions from 10 ug/ml; detected with anti-CFH antibody; details: both partners purified
T1 construct: also called full-length CFH; source: bought: Sigma

“Neisseria meningitidis V1.1 factor H binding protein (V1.1 fHbp), recombinant (from UniProt Q9JXV4) I311A” was tested, and the response ([1]; CFH 1.25 µg/ml (x position estimated), parent: est. 0.35) was 0.073 OD 450nm, the response ([1]; CFH 2.5 µg/ml, parent: est. 0.40) was 0.082 OD 450nm and the response ([1]; CFH 5 μg/ml, parent: est. 0.40) was 0.082 OD 450nm. The response ([1]; CFH 5 µg/ml, parent: est. 0.41) was 0.11 OD 450nm and the response ([1]; CFH 10 µg/ml, parent: est. 0.47) was 0.19 OD 450nm.

Work on “recombinant CFH6–7 (CCP domains 6 and 7 of complement factor H) (from UniProt P08603 321-443) (domain or fragment)” yielded a Kd [2] of 3.5 nM.

B1 gave a Kd [3] of 3 ± 0.5 nM.

B2: binds [4].
